Measured values published in paper PMC4159047 (Science signaling, 2014).
Blank lines part the entries; values can stand above or below the molecule they belong to.

Columns and labels:
type IV collagen [1] = assay: SPR
type IV collagen [2] = biological target: type IV collagen (biotin (Pierce EZ-link biotinylation kit) in the pull-downs); assay: SPR

Kd (type IV collagen [1]): 1.3 nM
koff (type IV collagen [1]): 0.000404 s⁻¹
kon (type IV collagen [1]): 306000 M⁻¹ s⁻¹
Molecule: Gpr126-NT-Fc (secreted, Fc-tagged protein containing the N-terminal fragment of zebrafish Gpr126) (Fc fusion)

Kd (type IV collagen [2]): 1.2 nM
koff (type IV collagen [2]): 0.00333 s⁻¹
kon (type IV collagen [2]): 2.78e+06 M⁻¹ s⁻¹
B1: CUBPTX-Fc (signal peptide, CUB domain and PTX domain of Gpr126 followed by an Fc tag) (Fc fusion, zebrafish, UniProt C6KFA3 41-336, looked up)
chain: CNVVLTDSQGSFTSPCYPNDYPPSQSCNWTIQAPAGFIVQITFLDFELEEAQGCIYDRVVVKTGTSDAKFCGLTANGLTLNSTGNVMEVFFNSDFSVQKKGFHISYKQVAVTLRNQKVTMPKSSKTILRVSNSISIPVLTAFTVCFEIARTAQKATETIFTLSDAAGTSILAFEKTSNGMELFIGASYCSVDNLLTSSDITATMKPLCLTWTKSSGLIGVYFGGHYFSSICSASQIYTLQSGGLLQIAGKGSSSVSVDDQNLDGFIYNFRLWDHAMLSSELSALTCDTVGNVVDWD
